In the DeepSol protein solubility set:

Assay: soluble on expression in E. coli; label from the status in PepcDB or PDB records

Row | Sequence | soluble on expression in E. coli
1 | MTKTEPNNAQLDWLESESIHIIREVAAECENPALLFSGGKDSVVLLALACKAFRLGSRPVKLPFPLVHIDTGHNYPEVIAFRDAQAAKLNARLIVGRVEDSIAKGTVVLRKETDSRNAAQAVTLLETIEANGFDALMGGARRDEEKARAKERIFSFRDEFGQWDPKAQRPELWSLYNTRLHKGENMRVFPISNWTELDIWQYIARENLELPPIYYSHRREVVRRRGLLVPVTPLTPKMPSETSEILDVRFRTVGDISCTCPVESTASTPTEIIRETAVADISERSATRLDDQASEAAMEKRKKEGYF | not soluble
2 | MGSSHHHHHHSSGLVPRGSMAQGLIEVERKFLPGPGTEERLQELGGTLEYRVTFRDTYYDTPELSLMQADHWLRRREDSGWELKCPGAAGVLGPHTEYKELTAEPTIVAQLCKVLRADGLGAGDVAAVLGPLGLQEVASFVTKRSAWKLVLLGADEEEPQLRVDLDTADFGYAVGEVEALVHEEAEVPTALEKIHRLSSMLGVPAQETAPAKLIVYLQRFRPQDYQRLLEVNSS | soluble
3 | MGSDKIHHHHHHMQRHLVDEFWCINVDSTAWSKVLHRGTRREFKKGEQIVSAGELVTQLRYLESGSVCMKRTTLDGNEKILMHIERSSLFCEVPFFTGDEIHSSFNCHRDAVVYCFSKEVVDDILEMYPCIAKDIIRTLSMKVSVLSNQIASLGLDTLEQRIAKFILLRYNLMNLADADLMTLGTLRMKDVASILGVHRATLYRALKTMEKMRLIKLLNENRLQVLNIEALAALANH | not soluble
4 | MSLKARTKIEKQVAASNEKLTAISPKVMTWAVRKVAGHVCFRTSAHKCTCGECGRQFDYEGKGKSVCCPYCGTRLQIKDTLKRTIKEAYYFSSLEVIDHLQVQRVFRLETTFRKGLPMEVDYWEACRLWLNAEGKSAVTARARTLSYYVDCFDWASEITLKRPNEVHWLIADTYVYPHYRLLPELKRNGMKGKLPDCYPMKLMKAVLTDSRMETILKSKDLHAVSYFVNRPLELDRCWQSYKVATRHHYRPSDMGLWADTIRLLEQCGKDICSPRYICPQNLKAEHDYWMNRHNQMEQKRRSQEQIQRAKRKEAEFYKEKSRYFGITITDKDLVISVLDTLEAFQAEGNALHHCVFQCEYYAKADSLILSAHDKEGNRIETIEFSLTEGKVIQSRGLCNTNTPHHDRIVRLVNAHAHQILAAKQTAEGHHHHHH | not soluble
5 | MGEGTRGEAFKKIREGYKVHIFDESYVSYINKGKGWMKVGGGIKVNPKRKRFAVVGGITISKEGITFSYSTYKKPSLNSKDIILYLRKVIKDEKTVIVMDNARIHGNEVREFLEENGVEFVYLPPYSPDKSPAEGPWAVLKKRLYSKIYTDFETLMWDATRFLRSISKRVNDLTYSVKRCGEPLDVNTE | soluble
6 | MGSDKIHHHHHHMKVMKDYKLMAVGQIVADCFDYAKVFNKYGIDFCCNGDVSLADACGKMGIDADCLLEELKQIKSEQSLTLDFKSWPIDLLVDYILKFHHRNIRYQGPQILQLLDRVCEAHAGKHPELYEVRELFQESWIDLNNHLTKEEMVLFPYIYDLFDAVAQHRPIPAFHCGSVSSPISVMMSEHDAEGERFRRISGLTHGYLVPGDACSSYRLLLEMLRTFEDNLHHHIHLENNIVFPKAIELQENCE | not soluble
7 | LGSMESTQQMAVSIINSSFEAAVVAATSALENMGIEYDYQDIYSRVKNKFDFVMDDSGVKNNPIGKAITIDQALNNKFGSAIRNRNWLADTSRPAKLDEDVNKLRMMLSSKGIDQKMRVLNACFSVKRIPGKSSSIIKCTKLMRDKLERGEVEVDDSFVDEKME | soluble
8 | GMSRSPFQTFVWRSEIFECQSTDIQRFYSLLAIETERLGLGSKILGQAGHHPLYLLQSPGQKAGLPNLLISAGFHGEESAGPWGLLHFLSQLDGELFKRVNLSVLPLVNPTGFAKGHRFNELGENPNRGFFIENGKAKPGADTSAEGRILLEHAHLLQVASRDGILTCHEDVLMTDTYVYTFEPSQAPGRFSHSLRDALGQYFPIAADGDVDNCPVRSGVIFNHFDTSFESFLVRSGARVGCCSETPGQQPLDQRILANAAAMNTFVNMLAPELS | soluble
9 | QVQLLESGAVLARPGTSVKISCKASGFNIKDYYMHWVKQRPGQGLEWIGGNDPANGHSMYDPKFQGRVTITADTSTSTVFMELSSLRSEDTAVYYCARDSGYAMDYWGQGTLVTVSSASTKGPSVFPLAPCSRSTSESTAALGCLVKDYFPEPVTVSWNSGALTSGVHTFPAVLQSSGLYSLSSVVTVPSSSLGTKTYTCNVDHKPSNTKVDKRVES | soluble
10 | MTAQTTHTVDAVVIGAGFGGIYAVHKLHHELGLTTVGFDKADGPGGTWYWNRYPGALSDTESHLYRFSFDRDLLQESTWKTTYITQPEILEYLEDVVDRFDLRRHFKFGTEVTSALYLDDENLWEVTTDHGEVYRAKYVVNAVGLLSAINFPNLPGLDTFEGETIHTAAWPEGKSLAGRRVGVIGTGSTGQQVITSLAPEVEHLTVFVRTPQYSVPVGNRPVNPEQIAEIKADYDRIWERAKNSAVAFGFEESTLPAMSVSEEERNRIFQEAWDHGGGFRFMFGTFGDIATDEAANEAAASFIRAKVAEIIEDPETARKLMPKGLFAKRPLCDSGYYEVYNRPNVEAVAIKENPIREVTAKGVVTEDGVLHELDVLVFATGFDAVDGNYRRIEIRGRDGLHINDHWDGQPTSYLGVSTANFPNWFMVLGPNGPFTNLPPSIETQVEWISDTIGYAERNGVRAIEPTPEAEAEWTETCTEIANATLFTKGDSWIFGANIPGKKPSVLFYLGGLRNYRAVMAEVAADGYRGFEVKSAEMVTV | soluble
11 | MSKIRVLSVDDSALMRQIMTEIINSHSDMEMVATAPDPLVARDLIKKFNPDVLTLDVEMPRMDGLDFLEKLMRLRPMPVVMVSSLTGKGSEVTLRALELGAIDFVTKPQLGIREGMLAYSEMIAEKVRTAARARIAAHKPMAAPTTLKAGPLLSSEKLIAIGASTGGTEAIRHVLQPLPLSSPAVIITQHMPPGFTRSFAERLNKLCQISVKEAEDGERVLPGHAYIAPGDKHMELARSGANYQIKIHDGPPVNRHRPSVDVLFHSVAKHAGRNAVGVILTGMGNDGAAGMLAMYQAGAWTIAQNEASCVVFGMPREAINMGGVSEVVDLSQVSQQMLAKISAGQAIRI | soluble
12 | MGCVGAGADAEGREARKVNKQIEEQLAKDKQVMRATHRLLLLGAGESGKSTIVKQMRILHINGFNEAEKREKITDIRRNVRDAMQVILRAMDEIVPKVSLDDPSTAISRDYILRITNDPEDNYPSEFYDHILTCWKDKGVMACYERSSEYQLIDCAQYFLDKVDVVRQNNYDPSEQDILRCRVMTTGIFETKFEVDKVRFHMFDVGGQRDERRKWIQCFNDVTAIIFVCASSSYNLVLWEDNTQNRLRESLALFKNIWNNRWLKTISVILFLNKQDLLSEKIKAKRYLLESFFPEFEGYNLPNDAVFDNQEDKDVVRAKYFIRGEFLRISTANSDGRHHCYPHFTCAVDTENIRRVFNDCRDIIQRIHLRQYELL | not soluble
13 | MKRLLLLGGIGEALALARRLGPAHLYSLAGLGKVPGDLACRVRVGGYGGAEGLAAFIDEQGFDLLVDATHPYAARISQNAVRAARLAGVPCWALRRPGWQAGPGDDWREVADWRELIAALTPFRRPLFTLGREPLEHLGQVPPHQHWTVRCLQGQPAAPRAEVIGARGPFSLDGERALFERLACDVLVSKNSGSQATEPKLQVAREMGLPVLVLARPALPPADREFADGEALLTAIRDWESA | not soluble
14 | MRVIVFFDLPVITPENRHNYSVFRKYLIKSGFIMQQKSVYSKLVLNLTNRDSIVKSIEKNKPPEGLVEVLTVTEKQYAKMEIIIGESKTEYLNTDERLVVLLEHHHHHH | soluble
15 | MSLKGTYVLLLKLEESVALRYGKKASHLEPGYYAYVGSAMGGFFKRIPRYFLGSRKRHWHIDYLLDHAQIAGLIMFSGKRIEEEISNVLSYHFEGIEDFGASDLRVKTNLYHVDPDKLFSLLGGFRENRDIRRAQKHRGKQNQSGEGHHHHHH | soluble
16 | GPGSMFTQISNAHTEVVTSLVFSPHVVTTCEGGLLCSTSGDDTTALWDLRAGPGVSQRAAHLTGHHVGPVNHALFHPSNAHTLLTASDDRSIGCWDLRRPDRVVGAVSGFQEGVNKMLWLPVTSDGCRGTGGSSSGGGGSVVSACDDGHVYVHALALPDSGSESATVAGAAPVPQVGALVDKFRVSTSTVNDIVLAPNSTSILITASEDCALRSWSLRHAQQMTNTSVGLMEDRLLATLDEFENPVNHVVVVPSGLMAPVESRAAGEDPESSSSRSPAGAAGDAEESADAAAASTGFPRAYQQVHGGDDVEDAEVGSDAGSSAGARQPRRATDISEAAGTACWLLAACSECVFGVDFALRVGEFGTGARAFVGHQDYVRGLEFTSEGKLLTVSDDSTAIEWDLATTDPIRQVKLHEGLVMSSAVSPSRNLLATGTDRGELRVWRLPFATERIGGSP | not soluble
17 | MSTEPLVVGAVAYTPNVVPIWEGIRGYFQDSESPDTQMDFVLYSNYARLVDSLIAGHIDIAWNTNLAYVRTVLQTGGRCTPLAQRDTDVDYTTVFVAHAGSDLHGAKDIAGKRLALGSADSAHAAILPLYYLRRAGIAESDLQVIRFDTDIGKHGDTGRSELDAVDAVLAGEADVAAIGSSTWAAMGAAELMGESLTEVWRTDGYCHCMFTALDTLPAERYQPWLDRLLAMSWDDSEHRKILELEGLRRWVPPHLDGYKPLFEAVQEQGIDPRW | not soluble
18 | MIDKVRAFIHRHQLLSEGAAVIVGVSGGPDSLALLHVFLSLRDEWKLQVIAAHVDHMFRGRESEEEMEFVKRFCVERRILCETAQIDVPAFQRSAGLGAQEAARICRYRFFAELMEKHQAGYVAVGHHGDDQVETILMRLVRGSTSKGYAGIPVKRPFHGGYLIRPFLAVSRAEIEAYCRQMGLSPRCDPSNEKDDYTRNRFRHHIVPLLRQENPRLHERFQQYSEMMAEDEQFLEELAADALNKVMEKQHRDAALSIGPFLELPRPLQRRVLQLLLLRLYGGVPPTLTSVHIGHILMLCERGRPSGMIDLPKGLKVIRSYDRCLFTFDAESGEKGYWFELPVPALLPLPNGYAIISEFGEHYPRKQAGNDWFVVDPASVSLPLRVRTRRRGDRMVLKGTGGTKKLKEIFIEAKIPRMERDRWPIVEDADGRILWVPGLKKSAFEAQNRGQARYILLQYQAMNS | soluble
19 | MENKKSFFHLHLISDSTGETLMSAGRAVSAQFHTSMPVEHVYPMIRNQKQLAQVIDLIDKEPGIVLYTIVDQQLAEFLDLRCHAIGVPCVNVLEPIIGIFQTYLGAPSRRRVGAQHALNADYFARIEALNFAMDHDDGQMPETYDDADVVIIGISRTSKTPTSIYLANRGIKTANIPVVPNVPLPESLYAATRPLIVGLVATSDRISQVRENRDLGTTGGFDGGRYTDRATIMEELKYARALCARNNWPLIDVTRRSIEETAAAILALRPRTRLEHHHHHH | soluble
20 | MKYKHLILSLSLIMLGPLAHAEEIGSVDTVFKMIGPDHKIVVEAFDDPDVKNVTCYVSRAKTGGIKGGLGLAEDTSDAAISCQQVGPIELSDRIKNGKAQGEVVFKKRTSLVFKSLQVVRFYDAKRNALAYLAYSDKVVEGSPKNAISAVPVMPWRQ | soluble
21 | MGSDKIHHHHHHMNILVDLTQIPIQKVGVGVYAKETFKFPNEDANELFFLLQDDDNDLRSTFLKSKIILVKSKFFRFFFCRFLLEQFYIPFLCYKYKINILHSLHYSFPIFLFKVKRIVTIHDLTFFIHPSVHTFIKRYYFRLFIKLACRYADRLICVSESTKKDLERICGRRSVSIDVIPLSCSPKMQVGEQELELVKKKFGVVSQYMLFIGTLEPRKNILNLINAFYKFSQKNRDYSLVIIGKKGWFYESIFKLVEELHLERSVVFTGFVTTKEKFILLSGAHSFIYPSIYEGFGLPVLEAITYGIPTITSKLSSLPEVAGNAALYINPYDVQSISDAIESVNCDEETRRKLIKNSEKQRLKYSWKKTANLTYSLYNRCGSI | not soluble
22 | RPARQVRRLEFNQAMDDFKTMFPNMDYDIIECVLRANSGAVDATIDQLLQMNLE | soluble
